{"source": "patent US8143216B2", "about": "“Modified human growth hormone” (Ambrx, Inc., priority 2004, dated 2012)", "key": {"rat GHR ECD (L43R)": {"molecular_target": "T1, rat GHR ECD (L43R) (Rattus norvegicus, UniProt P16310, L61R)", "T1 construct": "(GHR ECD, amino acids S29-T238) was cloned into pET20b vector; made in house", "T1 sequence (P16310 47-256 L61R)": "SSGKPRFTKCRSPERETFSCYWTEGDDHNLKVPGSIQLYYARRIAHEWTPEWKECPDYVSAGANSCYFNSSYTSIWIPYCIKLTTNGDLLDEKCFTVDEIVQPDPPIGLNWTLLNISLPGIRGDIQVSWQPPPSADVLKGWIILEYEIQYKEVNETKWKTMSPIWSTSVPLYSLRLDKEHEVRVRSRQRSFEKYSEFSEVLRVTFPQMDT", "assay": "Biacore analysis of binding of GH to GHR", "conditions": "rat GHR ECD (L43R) immobilized on a CM5 chip, bivalent analyte model"}, "[1]": {"assay": "Pharmacokinetic studies, single s.c. dose in normal male Sprague-Dawley rats", "type": "in vivo, rat", "conditions": "single-dose 1 mg/kg bolus s.c., normal male Sprague-Dawley rats", "method": "Pharmacokinetic properties of PEG-modified growth hormone compounds were compared to each other and to nonPEGylated growth hormone in male Sprague-Dawley rats (261-425 g) obtained from Charles River Laboratories. Catheters were surgically installed into the carotid artery for blood collection. Following successful catheter installation, animals were assigned to treatment groups (three to six per group) prior to dosing. Animals were dosed subcutaneously with 1 mg/kg of compound in a dose volume of 0.41-0.55 ml/kg. Blood samples were collected at various time points via the indwelling catheter and into EDTA-coated microfuge tubes. Plasma was collected after centrifugation, and stored at −80° C. until analysis. Compound concentrations were measured using antibody sandwich growth hormone ELISA kits from either BioSource International (Camarillo, Calif.) or Diagnostic Systems Laboratories (Webster, Tex.). Concentrations were calculated using standards corresponding to the analog that was dosed. Pharmacokinetic parameters were estimated using the modeling program WinNonlin (Pharsight, version 4.1). Noncompartmental analysis with linear-up/log-down trapezoidal integration was used, and concentration data was uniformly weighted.\nRats (n=3-4 per group) were given a single bolus dose of 1 mg/kg hGH wild-type protein (WHO hGH), His-tagged hGH polypeptide (his-hGH), or His-tagged hGH polypeptide comprising non-natural amino acid p-acetyl-phenylalanine at position 92 covalently linked to 30 kDa PEG (30 KPEG-pAF92(his)hGH). Plasma samples were taken over the indicated time intervals and assayed for injected compound as described.\nRats (n=3-6 per group) were given a single bolus dose of 1 mg/kg protein. hGH polypeptides comprising non-natural amino acid p-acetyl-phenylalanine covalently linked to 30 kDa PEG at each of six different positions were compared to WHO hGH and (his)-hGH. Plasma samples were taken over the indicated time intervals and assayed for injected compound as described. Concentration vs time curves were evaluated by noncompartmental analysis (Pharsight, version 4.1). Values shown are averages (+/− standard deviation). Cmax: maximum concentration; terminal t1/2: terminal half-life; AUC0->inf: area under the concentration-time curve extrapolated to infinity; MRT: mean residence time; Cl/f: apparent total, plasma clearance; Vz/f: apparent volume of distribution during terminal phase."}, "hypophysectomized rats": {"tested_on": "hypophysectomized rats", "assay": "Pharmacodynamic studies in hypophysectomized rats (Example 30)", "type": "in vivo, rat", "conditions": "s.c., compared with the pAF92 30 kDa PEG compound, p<0.0005", "method": "Hypophysectomized male Sprague-Dawley rats were obtained from Charles River Laboratories. Pituitaries were surgically removed at 3-4 weeks of age. Animals were allowed to acclimate for a period of three weeks, during which time bodyweight was monitored. Animals with a bodyweight gain of 0-8 g over a period of seven days before the start of the study were included and randomized to treatment groups. Rats were administered either a bolus dose or daily dose subcutaneously. Throughout the study rats were daily and sequentially weighed, anesthetized, bled, and dosed (when applicable). Blood was collected from the orbital sinus using a heparinized capillary tube and placed into an EDTA coated microfuge tube. Plasma was isolated by centrifugation and stored at −80° C. until analysis.\nThe peptide IGF-1 is a member of the family of somatomedins or insulin-like growth factors. IGF-1 mediates many of the growth-promoting effects of growth hormone. IGF-1 concentrations were measured using a competitive binding enzyme immunoassay kit against the provided rat/mouse IGF-1 standards (Diagnosic Systems Laboratories). Significant difference was determined by t-test using two-tailed distribution, unpaired, equal variance. […] Rats (n=5-7 per group) were given either a single dose or daily dose subcutaneously. Animals were sequentially weighed, anesthetized, bled, and dosed (when applicable) daily. […]"}}}
{"substance": "Y35pAF-30KD PEG: hGH polypeptide comprising p-acetyl-phenylalanine at position 35 covalently linked to 30 kDa PEG", "values": [{"measurement": "kon", "setting": "rat GHR ECD (L43R)", "value": 90000, "unit": "M⁻¹ s⁻¹"}, {"measurement": "AUC0−>inf", "setting": "[1]", "value": "39,918 ng × hr/ml"}, {"measurement": "Cl/f", "setting": "[1]", "value": 0.583, "unit": "mL/min/kg"}, {"measurement": "Cmax", "setting": "[1]", "value": "1,885 ng/ml"}, {"measurement": "MRT", "setting": "[1]", "value": 19.16, "unit": "h"}, {"measurement": "Terminal t1/2", "setting": "[1]", "value": 4.85, "unit": "h"}, {"measurement": "bodyweight gain at day 9", "setting": "hypophysectomized rats", "value": "greater weight gain was observed"}]}
